Read-outs that look alike come from different tables or passages of the source.

From article PMC3215948 (The Journal of Cell Biology, 2006) come the findings set out here.

Common to all, as to test: pull-down
One assay concerns the target T1, His6-Vps45p_(L117R) (S. cerevisiae, UniProt P38932 1-577, L117R).
T1 sequence (looked up): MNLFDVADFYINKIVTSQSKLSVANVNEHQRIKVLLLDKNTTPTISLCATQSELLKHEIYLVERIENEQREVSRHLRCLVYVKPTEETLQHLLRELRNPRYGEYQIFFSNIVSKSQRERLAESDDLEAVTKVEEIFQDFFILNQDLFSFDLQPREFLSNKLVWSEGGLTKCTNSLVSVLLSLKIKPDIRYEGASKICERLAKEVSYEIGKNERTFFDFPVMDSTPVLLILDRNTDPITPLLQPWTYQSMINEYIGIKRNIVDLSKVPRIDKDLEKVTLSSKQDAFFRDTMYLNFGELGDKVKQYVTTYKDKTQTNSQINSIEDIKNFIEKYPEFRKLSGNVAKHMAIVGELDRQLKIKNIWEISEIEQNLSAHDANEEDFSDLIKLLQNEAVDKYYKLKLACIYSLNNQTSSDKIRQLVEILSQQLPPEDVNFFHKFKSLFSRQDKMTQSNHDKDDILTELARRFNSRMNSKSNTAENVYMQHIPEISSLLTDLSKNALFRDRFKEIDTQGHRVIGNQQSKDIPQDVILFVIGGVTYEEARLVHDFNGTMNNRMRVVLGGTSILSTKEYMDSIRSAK

For assay [1], the target named is T2, His6-Vps45p (S. cerevisiae, UniProt P38932 1-577).
T2 sequence (looked up): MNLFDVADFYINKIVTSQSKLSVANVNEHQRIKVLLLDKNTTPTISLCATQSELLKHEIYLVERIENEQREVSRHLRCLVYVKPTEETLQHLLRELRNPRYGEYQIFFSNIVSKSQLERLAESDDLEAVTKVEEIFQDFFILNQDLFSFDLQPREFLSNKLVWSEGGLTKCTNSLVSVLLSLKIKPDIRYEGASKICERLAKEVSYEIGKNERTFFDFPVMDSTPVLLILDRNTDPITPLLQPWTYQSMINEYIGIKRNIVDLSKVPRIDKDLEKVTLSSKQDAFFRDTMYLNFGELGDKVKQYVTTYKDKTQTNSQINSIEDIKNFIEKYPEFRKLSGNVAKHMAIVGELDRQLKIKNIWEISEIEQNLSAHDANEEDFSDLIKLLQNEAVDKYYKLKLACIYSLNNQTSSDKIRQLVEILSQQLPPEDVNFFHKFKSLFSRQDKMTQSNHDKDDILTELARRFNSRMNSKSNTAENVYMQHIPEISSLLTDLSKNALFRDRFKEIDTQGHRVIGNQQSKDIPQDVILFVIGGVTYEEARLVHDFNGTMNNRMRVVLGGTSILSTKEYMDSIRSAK

Assay [2] concerns the target T2, His6-Vps45p. This is another data set of the same source.

B1: Snc2p-PrA (cytosolic domain of Snc2p fused to protein A) (domain or fragment, S. cerevisiae, UniProt P33328 1-88, looked up)
chain: MSSSVPYDPYVPPEESNSGANPNSQNKTAALRQEIDDTVGIMRDNINKVAERGERLTSIEDKADNLAISAQGFKRGANRVRKQMWWKD
As to B1, the binding result with His6-Vps45p_(L117R) is “binds”.

B2: Snc2p_(cyto) (cytosolic domain of Snc2p, PrA tag removed by thrombin) (domain or fragment, S. cerevisiae, UniProt P33328 1-88, looked up)
chain: MSSSVPYDPYVPPEESNSGANPNSQNKTAALRQEIDDTVGIMRDNINKVAERGERLTSIEDKADNLAISAQGFKRGANRVRKQMWWKD
Turning to B2, the binding result in the assay with His6-Vps45p [1] is recorded as “binds”.

B3: Snc2p_(Δ2–19)-PrA (domain or fragment, S. cerevisiae, UniProt P33328 1-88, looked up)
chain: MANPNSQNKTAALRQEIDDTVGIMRDNINKVAERGERLTSIEDKADNLAISAQGFKRGANRVRKQMWWKD
Turning to B3, in the assay with His6-Vps45p [2], the binding result was “binds”.
